Laboratory results reported in the Immune Epitope Database (IEDB).

Legend:
[1] = target: HLA-B*40:01; assay: IEDB peptide-MHC binding, purified MHC/direct/fluorescence; filed as Kd, often an IC50 or EC50 that approximates it; ≥ and ≤ were set here for values at or beyond the usual limits of such assays; conditions: source organism: Bacillus anthracis
[2] = target: HLA-A*03:01; assay: as above
[3] = target: HLA-B*48:01; assay: as above; conditions: source organism: Bacillus anthracis
[4] = target: HLA-A*26:02; assay: as above; conditions: source organism: Picosynechococcus sp. PCC 7002
[5] = target: HLA-B*57:01; assay: as above
[6] = target: HLA-B*39:01; assay: as above; conditions: source organism: Picosynechococcus sp. PCC 7002
[7] = target: HLA-B*08:01; assay: as above; conditions: source organism: Picosynechococcus sp. PCC 7002
[8] = target: HLA-A*69:01; assay: as above; conditions: source organism: Bacillus anthracis
[9] = target: HLA-A*31:01; assay: as above; conditions: source organism: Bacillus anthracis
[10] = target: HLA-B*15:01; assay: as above
[11] = target: HLA-B*58:01; assay: as above; conditions: source organism: Bacillus anthracis
[12] = target: HLA-A*02:01; assay: as above
[13] = target: HLA-A*26:03; assay: as above
[14] = target: HLA-B*46:01; assay: as above
[15] = target: HLA-A*11:01; assay: as above; conditions: source organism: Bacillus anthracis
[16] = target: HLA-B*27:05; assay: as above; conditions: source organism: Bacillus anthracis
[17] = target: HLA-B*07:02; assay: as above; conditions: source organism: Bacillus anthracis
[18] = target: HLA-A*01:01; assay: as above; conditions: source organism: Bacillus anthracis
[19] = target: HLA-A*02:03; assay: IEDB peptide-MHC binding, purified MHC/competitive/fluorescence; filed as Kd, often an IC50 or EC50 that approximates it; ≥ and ≤ were set here for values at or beyond the usual limits of such assays
[20] = target: HLA-B*15:17; assay: as above
[21] = target: HLA-A*26:02; assay: as above; conditions: source organism: Human immunodeficiency virus 1
[22] = target: HLA-B*57:01; assay: as above; conditions: source organism: Human immunodeficiency virus 1
[23] = target: HLA-A*11:01; assay: as above; conditions: source organism: Human immunodeficiency virus 1
[24] = target: HLA-B*18:01; assay: as above; conditions: source organism: Human immunodeficiency virus 1
[25] = target: HLA-A*30:01; assay: as above; conditions: source organism: Human immunodeficiency virus 1
[26] = target: HLA-A*01:01; assay: as above; conditions: source organism: Human immunodeficiency virus 1
[27] = target: HLA-A*02:06; assay: as above; conditions: source organism: Human immunodeficiency virus 1
[28] = target: HLA-A*02:03; assay: IEDB peptide-MHC binding, purified MHC/direct/fluorescence; filed as Kd, often an IC50 or EC50 that approximates it; ≥ and ≤ were set here for values at or beyond the usual limits of such assays; conditions: source organism: Cryptosporidium parvum Iowa II
[29] = target: HLA-A*24:03; assay: as above; conditions: source organism: Cryptosporidium parvum Iowa II
[30] = target: HLA-A*02:11; assay: as above; conditions: source organism: Cryptosporidium parvum Iowa II
[31] = target: HLA-A*02:19; assay: as above; conditions: source organism: Cryptosporidium parvum Iowa II
[32] = target: HLA-B*51:01; assay: as above; conditions: source organism: Cryptosporidium parvum Iowa II
[33] = target: HLA-A*02:12; assay: as above; conditions: source organism: Cryptosporidium parvum Iowa II
[34] = target: HLA-A*02:16; assay: as above; conditions: source organism: Cryptosporidium parvum Iowa II
[35] = target: HLA-A*29:02; assay: as above; conditions: source organism: Cryptosporidium parvum Iowa II
[36] = target: HLA-A*23:01; assay: as above; conditions: source organism: Cryptosporidium parvum Iowa II
[37] = target: HLA-B*27:03; assay: as above; conditions: source organism: Cryptosporidium parvum Iowa II
[38] = target: HLA-C*05:01; assay: as above; conditions: source organism: Cryptosporidium parvum Iowa II
[39] = target: HLA-A*26:01; assay: as above; conditions: source organism: Cryptosporidium parvum Iowa II
[40] = target: HLA-B*83:01; assay: IEDB peptide-MHC binding, purified MHC/competitive/fluorescence; filed as Kd, often an IC50 or EC50 that approximates it; ≥ and ≤ were set here for values at or beyond the usual limits of such assays
[41] = target: HLA-B*45:06; assay: as above
[42] = target: HLA-B*15:42; assay: as above
[43] = target: HLA-C*14:02; assay: as above; conditions: source organism: Cryptosporidium parvum Iowa II
[44] = target: HLA-A*68:23; assay: as above; conditions: source organism: Cryptosporidium parvum Iowa II
[45] = target: HLA-A*32:07; assay: as above; conditions: source organism: Mycobacterium tuberculosis C
[46] = target: HLA-C*08:02; assay: IEDB peptide-MHC binding, purified MHC/direct/fluorescence; filed as Kd, often an IC50 or EC50 that approximates it; ≥ and ≤ were set here for values at or beyond the usual limits of such assays; conditions: source organism: Hylobates lar
[47] = target: HLA-A*02:01; assay: IEDB peptide-MHC binding, purified MHC/competitive/fluorescence; ≥ and ≤ were set here for values at or beyond the usual limits of such assays; conditions: source organism: Monodelphis domestica
[48] = target: HLA-A*68:02; assay: as above; conditions: source organism: Monodelphis domestica
[49] = source organism: Bacillus anthracis
[50] = source organism: Bacillus anthracis str. A0488
[51] = source organism: Human immunodeficiency virus 1
[52] = source organism: Cryptosporidium parvum Iowa II
[53] = source organism: Mycobacterium tuberculosis C

## DTVLFNAGL
[1]
  Kd: ≥ 20 µM
[2]; [49]
  Kd: ≥ 20 µM
[3]
  Kd: ≥ 20 µM
[4]
  Kd: 0.041 µM
[5]; [49]
  Kd: ≥ 20 µM
[6]
  Kd: ≥ 20 µM
[7]
  Kd: ≥ 20 µM
[8]
  Kd: ≤ 0.001 µM
[9]
  Kd: ≥ 20 µM
[10]; [49]
  Kd: ≥ 20 µM
[11]
  Kd: ≥ 20 µM
[12]; [49]
  Kd: ≥ 20 µM
[13]; source organism: Picosynechococcus sp. PCC 7002
  Kd: 0.054 µM
[14]; [49]
  Kd: ≥ 20 µM
[15]
  Kd: ≥ 20 µM
[16]
  Kd: ≥ 20 µM
[17]
  Kd: ≥ 20 µM
[18]
  Kd: ≥ 20 µM
[19]; [50]
  Kd: ≥ 20 µM
[20]; [50]
  Kd: ≥ 20 µM

## GTIIAHGGL
[13]; source organism: Rickettsia prowazekii
  Kd: ≥ 20 µM

## KSLFNTIATLY
[19]; [51]
  Kd: 1.9 µM
[21]
  Kd: ≥ 20 µM
[22]
  Kd: 0.114 µM
[20]; [51]
  Kd: 0.0022 µM
[23]
  Kd: 0.11 µM
[24]
  Kd: 0.284 µM
[25]
  Kd: ≥ 20 µM
[26]
  Kd: 1.02 µM
[27]
  Kd: 0.254 µM

## MPMSMPIPM
[28]
  Kd: ≥ 20 µM
[29]
  Kd: ≥ 20 µM
[2]; [52]
  Kd: ≥ 20 µM
[5]; [52]
  Kd: ≥ 20 µM
[30]
  Kd: ≥ 20 µM
[31]
  Kd: ≥ 20 µM
[32]
  Kd: 5.84 µM
[10]; [52]
  Kd: ≥ 20 µM
[33]
  Kd: ≥ 20 µM
[12]; [52]
  Kd: ≥ 20 µM
[34]
  Kd: ≥ 20 µM
[35]
  Kd: ≥ 20 µM
[14]; [52]
  Kd: ≥ 20 µM
[36]
  Kd: ≥ 20 µM
[37]
  Kd: ≥ 20 µM
[38]
  Kd: ≥ 20 µM
[39]
  Kd: ≥ 20 µM
[40]; [52]
  Kd: 0.0395 µM
[41]; [52]
  Kd: ≥ 5 µM
[42]; [52]
  Kd: ≥ 5 µM
[43]
  Kd: 0.125 µM
[44]
  Kd: 0.0027 µM

## RIRAANLPI
[40]; [53]
  Kd: ≥ 5 µM
[41]; [53]
  Kd: ≥ 5 µM
[42]; [53]
  Kd: ≥ 5 µM
[45]
  Kd: 0.0333 µM

## YSLEYFQFV
[46]
  Kd: ≥ 20 µM
[47]
  IC50: 0.0592 µM
[48]
  IC50: 0.106 µM
